Measurements as given in IntAct's records for PubMed 24132237.

Biological target: wasf2_human WASF2 (UniProt Q9Y6W5)

Ras-related C3 botulinum toxin substrate 1 (Homo sapiens) (from UniProt P63000-1) Q61L
effect of a mutation on the interaction: increasing interaction strength
